What all share (experiment): SPR, Fab over captured MICA*008.mIgG2a Ala variant; KD relative to wild type
(In general: SPR reads the build-up and loss of mass on a sensor chip optically.)

The target of one assay is T1, N289A.
T1 construct: % monomer 89.74; also called MICA*008.mIgG2a N289A
T1 chain: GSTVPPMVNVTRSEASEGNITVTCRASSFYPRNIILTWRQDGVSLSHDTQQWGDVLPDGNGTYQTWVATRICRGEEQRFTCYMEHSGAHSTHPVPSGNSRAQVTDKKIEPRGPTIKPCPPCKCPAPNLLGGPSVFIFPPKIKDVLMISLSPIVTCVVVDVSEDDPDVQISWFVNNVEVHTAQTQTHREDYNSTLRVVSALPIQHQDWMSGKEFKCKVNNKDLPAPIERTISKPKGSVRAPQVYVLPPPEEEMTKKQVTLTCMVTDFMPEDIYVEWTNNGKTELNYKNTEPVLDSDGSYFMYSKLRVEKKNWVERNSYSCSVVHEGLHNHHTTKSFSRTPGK

Another assay has as its target T2, Q278A.
T2 construct: % monomer 92.32; also called MICA*008.mIgG2a Q278A
T2 chain: T1 chain with Q77A, A88N

The target of the next assay is T3, G288A.
T3 construct: % monomer 95.3; also called MICA*008.mIgG2a G288A
T3 chain: T1 chain with G87A, A88N

For the next assay, the target named is T4, H248A.
T4 construct: % monomer 92.05; also called MICA*008.mIgG2a H248A
T4 chain: T1 chain with H47A, A88N

The target in the next assay is T5, T292A.
T5 construct: % monomer 80.56; also called MICA*008.mIgG2a T292A
T5 chain: T1 chain with A88N, T91A

In a further assay the target is T6, Q241A (Fc fusion, a disulfide-linked homodimer; one chain given.).
T6 construct: % monomer 97.6; also called MICA*008.mIgG2a Q241A
T6 chain: T1 chain with Q40A, A88N

The next assay deals with T7, R279A.
T7 construct: % monomer 95.2; also called MICA*008.mIgG2a R279A
T7 chain: T1 chain with R78A, A88N

Substitutions are numbered along the chain they refer to.

B1: 1D5 Fab (Fab, V domains shown)
VH: EIQLQQSGPELVKPGASVKVSCKASGYAFTSQNIYWVKQSHGKSLEWIGYIEPYNVVPMYNPKFKGKATLTVDKSSSSAYIHLNSLTSEDSAIYYCARSGSSNFDYWGQGTTLTVSS
VL: EIILTQSPTTMAASPGEKITITCSASSSISSHYLHWYQQKSGFSPKLLIYRTSNLASGVPARFSGSGSGTSYSLTIGTMEAEDVATYYCQQGSSLPLTFGAGTKVEIK
notes: Expressed in E. coli as chimera of murine variable and human constant domains; not shown: human IgG1 CH1 constant domain; human kappa CL constant domain
On to B1, for which the fold-decrease in affinity in the assay with N289A amounted to 0.2; with Q278A it was 0.7; with G288A it was 1.

B2: 6F8.7 Fab (Fab, V domains shown)
VH: DVQLQGSGPGLVKPSQSLSLTCSVTGYSITNDYYWNWIRQFPGNKLEWMGFISFGGSNNYNPSLKNRISITRDTSKNQFFLKLSSVTTEDTATYYCARYDGRGAWFAYWAQGTLVTVSA
VL: DIQMTQSPASLSASVGETVTITCRASGNIHNYLAWYQQKQGKSPQLLVYDAITLADGVPSRFSGSGSGTQYSLKINSLQPEDFGNYYCQHFWSFPLTFGAGTKVEIK
In the case of B2, the fold-decrease in affinity with N289A was found to be 1.2; with H248A, 0.6; with Q278A it was 0.5; with G288A it was 1; in the assay with T292A, 1.7; with Q241A, 1.1. Also, the fold-decrease in affinity with R279A was determined as 4.5.

B3: 7D4.6 Fab (Fab, V domains shown)
VH: DVQLQESGPGLVKPSQSLSLTCTVTGYSITSDYAWNWIRQFPRNKLEWMGYINYSGTTNYNPSLKSRISITRDTSKNQFFLQLISVTTEDTATYYCSYYRYDGAWFPYWGQGTLVTVSA
VL: B2 VL with D50N, T53M, G64A, N85S
B3: the fold-decrease in affinity with N289A stood at 3.5; with H248A, 0.6; in the assay with Q278A, 4.9; in the assay with G288A, 0.8; with T292A, 2.1; with Q241A, 0.4. In the assay with R279A, the fold-decrease in affinity came out at 5.1.

B4: 2E5.2.3 Fab (Fab, V domains shown)
VH: QGQMQQSGAELVKPGASVKLSCKTSGFTFSDNYISWLKQKPGQSLEWIAWIYAGTGGTSYNQKFTAKAQLTVDTSSSTAYMQFSSLTTEDSAIYYCARHDYYGTSGAWFAYWGQGTLVTVSA
VL: DVLMTQTPLSLPVSLGDQASLSCRSSQNIVHINGNTYLEWYLQKPGQSPKLLIYKVSNRFSGVPDRFSGSGSGTDFTLKISRVEAEDLGVYYCFQGSHVPWTFGGGTKVEIK
B4: the fold-decrease in affinity stood at 1.1 with N289A; 1 in the assay with H248A; 1 with Q278A; 0.6 with G288A; 1.3 in the assay with T292A; 1.1 with Q241A. The fold-decrease in affinity with R279A worked out at 0.8.

Values taken from patent US20200055939A1 (Genentech, published 2020).
